Results taken from patent US20230203177A1 (Bristol-Myers Squibb, published 2023).

Columns and labels:
[1] = target: human CD40 on primary human tonsillar B cells (human, UniProt P25942 21-277); assay: cell-based or functional assay
[2] = target: T1, soluble human CD40 extracellular domain (human, UniProt P25942 21-193); assay: SPR, purified Ab on protein A, 6 concentrations of hCD40 ECD
T1 construct: Produced in house; also called hCD40; soluble hCD40 extracellular domain
Experimental: Additionally, to more accurately define the dissociation rate (kd), a longer dissociation time of 360 seconds (s) was used as opposed to the shorter 180 s dissociation that had been used in the supernatant screening experiment.
CD40 binding SPR: SPR studies of the purified antibodies were conducted on BIAcore™ T200 instrument (GE Healthcare, Chicago Ill.). A Series S Protein A sensor chip (GE Healthcare, Chicago Ill.) was equilibrated with SPR running buffer of 10 mM NaPO₄, 130 mM NaCl, 0.05% tween 20, (PBS-T) pH 7.2 at 25° C. The purified antibody samples were diluted to 3 μg/ml in PBS-T and captured on the protein A surface for 30 s at 10 μl/min Binding of 3.91, 7.81, 15.6, 31.3, 62.5, and 125 nM human CD40 extracellular domain (produced in house) was evaluated using association time of 180 s at 30 μl/min, followed by a dissociation time of 360 s at 30 μl/min Regeneration between cycles was accomplished using two 15 s injections of 10 mM glycine pH 1.5. […] Data were analyzed using BIAcore™ T200 evaluation software by fitting to a 1:1 Langmuir model.

[3] = target: T1, soluble human CD40 extracellular domain; assay: SPR, Ab captured from supernatant on protein A, hCD40 ECD analyte
How it was run: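 Biacore T200, 25 °C, PBS-T pH 7.2; antibodies (3 μg/ml, supernatants titre-normalised) captured on protein A chip 30 s. Human CD40 ECD analyte (5 and 50 nM, or 50 and 500 nM), 180 s association and 180 s dissociation at 30 μl/min; 1:1 Langmuir fit.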

[4] = target: T1, soluble human CD40 extracellular domain; assay: SPR, antibody captured from supernatant on protein A chip, soluble hCD40 ECD at 5 and 50 nM (summary table of the 16 chosen antibodies)

T1 sequence (P25942 21-193 limits assumed): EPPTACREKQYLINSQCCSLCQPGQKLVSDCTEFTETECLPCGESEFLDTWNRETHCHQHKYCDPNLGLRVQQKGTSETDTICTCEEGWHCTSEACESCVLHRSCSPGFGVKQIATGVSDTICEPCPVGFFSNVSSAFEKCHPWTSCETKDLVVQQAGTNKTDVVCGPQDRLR
human CD40 on primary human tonsillar B cells, sequence (P25942 21-277 limits assumed): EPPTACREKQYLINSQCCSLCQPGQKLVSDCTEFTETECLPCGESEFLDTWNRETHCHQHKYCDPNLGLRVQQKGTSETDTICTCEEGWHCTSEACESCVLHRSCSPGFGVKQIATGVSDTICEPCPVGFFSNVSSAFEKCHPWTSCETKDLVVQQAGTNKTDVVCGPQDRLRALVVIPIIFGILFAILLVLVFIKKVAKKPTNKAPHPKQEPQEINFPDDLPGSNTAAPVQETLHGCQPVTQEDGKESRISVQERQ

Row | Binder | IC50, inhibition of tonsillar human B cell proliferation stimulated by IZ-hCD40L trimer (M4 lot 1) [1] | IC50, inhibition of tonsillar human B cell proliferation stimulated by IZ-hCD40L trimer (M4 lot 2) [1] | IC50, inhibition of tonsillar human B cell proliferation stimulated by hCD40L expressing CHO cells (M4 lot 1) [1] | IC50, inhibition of tonsillar human B cell proliferation stimulated by hCD40L expressing CHO cells (M4 lot 2) [1] | Kd [2] | koff [2] | kon [2] | Kd [3] | Kd [4] | IC50, inhibition of tonsillar human B cell proliferation stimulated by IZ-hCD40L trimer [1] | IC50, inhibition of tonsillar human B cell proliferation stimulated by hCD40L expressing CHO cells [1]
1 | M4 (HC-K12E / LC-wt) (antibody, human IgG1, kappa, IgG1-P238K; two production batches; also called HC4/LC1; M4-b) heavy: not shown light: DIQMTQSPSFLSASVGDRVTITCKASQDVSTAVAWYQQKPGKAPKLLIYSASYRYTGVPSRFSGSGSGTDFTLTISSLQPEDFATYYCQQHYSTPWTFGGGTKVEIKRTVAAPSVFIFPPSDEQLKSGTASVVCLLNNFYPREAKVQWKVDNALQSGNSQESVTEQDSKDSTYSLSSTLTLSKADYEKHKVYACEVTHQGLSSPVTKSFNRGEC | 0.0029 µg/mL | 0.0008 µg/mL | 0.0237 µg/mL | 0.0396 µg/mL | 2.8 nM | 0.00069 s⁻¹ | 250000 M⁻¹ s⁻¹ | 3.6 nM | 3.6 nM |  | 
2 | M53 (HC-K12E,K13Q,K23E / LC-K45Q,R54Q,R61Q) (antibody, human IgG1, kappa, IgG1-P238K; also called HC5/LC4) heavy: not shown light: DIQMTQSPSFLSASVGDRVTITCKASQDVSTAVAWYQQKPGKAPQLLIYSASYQYTGVPSQFSGSGSGTDFTLTISSLQPEDFATYYCQQHYSTPWTFGGGTKVEIKRTVAAPSVFIFPPSDEQLKSGTASVVCLLNNFYPREAKVQWKVDNALQSGNSQESVTEQDSKDSTYSLSSTLTLSKADYEKHKVYACEVTHQGLSSPVTKSFNRGEC |  |  |  |  | 2.5 nM | 0.0008 s⁻¹ | 320000 M⁻¹ s⁻¹ | 3.2 nM | 3.2 nM | 0.0034 µg/mL | 0.367 µg/mL
3 | M62 (HC-K74T / LC-K45Q,R54Q,R61Q) (antibody, human IgG1, kappa, V domains shown, IgG1-P238K; also called HC14/LC4) VH: QVQLVQSGAEVKKPGSSVKVSCKASGYAFTSYWMHWVRQAPGQGLEWMGQINPTTGRSQYNEKFKTRVTITADTSTSTAYMELSSLRSEDTAVYYCARWGLQPFAYWGQGTLVTVSS VL: DIQMTQSPSFLSASVGDRVTITCKASQDVSTAVAWYQQKPGKAPQLLIYSASYQYTGVPSQFSGSGSGTDFTLTISSLQPEDFATYYCQQHYSTPWTFGGGTKVEIKR |  |  |  |  | 2.2 nM | 0.00066 s⁻¹ | 300000 M⁻¹ s⁻¹ | 3.1 nM | 3.1 nM | 0.0062 µg/mL | 0.356 µg/mL
4 | M10 (HC-R67E / LC-wt) (antibody, human IgG1, kappa, IgG1-P238K; also called HC10/LC1) heavy: not shown light: DIQMTQSPSFLSASVGDRVTITCKASQDVSTAVAWYQQKPGKAPKLLIYSASYRYTGVPSRFSGSGSGTDFTLTISSLQPEDFATYYCQQHYSTPWTFGGGTKVEIKRTVAAPSVFIFPPSDEQLKSGTASVVCLLNNFYPREAKVQWKVDNALQSGNSQESVTEQDSKDSTYSLSSTLTLSKADYEKHKVYACEVTHQGLSSPVTKSFNRGEC |  |  |  |  | 2.3 nM | 0.00067 s⁻¹ | 290000 M⁻¹ s⁻¹ | 3 nM | 3 nM | 0.0277 µg/mL | 0.353 µg/mL
5 | M63 (HC-R67Q / LC-K45Q,R54Q,R61Q) (antibody, human IgG1, kappa, V domains shown, IgG1-P238K; also called HC15/LC4) VH: QVQLVQSGAEVKKPGSSVKVSCKASGYAFTSYWMHWVRQAPGQGLEWMGQINPTTGRSQYNEKFKTQVTITADKSTSTAYMELSSLRSEDTAVYYCARWGLQPFAYWGQGTLVTVSS VL: DIQMTQSPSFLSASVGDRVTITCKASQDVSTAVAWYQQKPGKAPQLLIYSASYQYTGVPSQFSGSGSGTDFTLTISSLQPEDFATYYCQQHYSTPWTFGGGTKVEIKR |  |  |  |  | 1.8 nM | 0.00073 s⁻¹ | 400000 M⁻¹ s⁻¹ | 2.4 nM | 2.4 nM | 0.0057 µg/mL | 0.208 µg/mL
6 | M33 (HC-wt / LC-K45E) (antibody, human IgG1, kappa, IgG1-P238K; also called HC1/LC3) heavy: not shown light: DIQMTQSPSFLSASVGDRVTITCKASQDVSTAVAWYQQKPGKAPELLIYSASYRYTGVPSRFSGSGSGTDFTLTISSLQPEDFATYYCQQHYSTPWTFGGGTKVEIKRTVAAPSVFIFPPSDEQLKSGTASVVCLLNNFYPREAKVQWKVDNALQSGNSQESVTEQDSKDSTYSLSSTLTLSKADYEKHKVYACEVTHQGLSSPVTKSFNRGEC |  |  |  |  | 2.9 nM | 0.00073 s⁻¹ | 260000 M⁻¹ s⁻¹ | 4 nM | 4 nM | 0.0009 µg/mL | 0.0575 µg/mL
